# Ends that are not written are not given here.
# Molecular target: T1, human GABAC receptor rho1 subunit expressed on stably transfected neuroblastoma cells (human, UniProt P24046 22-479)
# T1 construct: whole, on cells; the pentameric state on these cells was not measured; also called GABAC human ρ1; GABAC-transfected neuroblastoma cells
# Test: phage display panning (Ph.D-12 library): subtraction on non-transfected neuroblastoma cells, then three rounds on GABAC-transfected neuroblastoma cells; clones sequenced
# Excerpt: Screening of phage display peptides with GABAC-expressing cells MAY employ phage display to identify 12-mer peptide sequences that can serve as an NNP anchoring element. GABAC-transfected neuroblastoma cells have yielded sequences of peptides that preferentially bind to GABAC-expressing cells. For phage selection, we used a screening method similar to that previously used to identify phages that bind to ErbB receptors (Stortelers et al., 2003). Briefly, 2×10¹⁰ phages (Ph.D-12 library from New England Biolabs, MA) were incubated with control, non-transfected neuroblastoma cells in binding buffer (PBS containing 0.2% BSA, 0.05% Tween 20) for 2 hr. Non-bound phages were collected and then incubated with GABAC-transfected neuroblastoma cells for 2 hr. After rinsing several times with washing buffer (0.05% Tween 20 in PBS), bound phages were eluted using an acidic glycine buffer (50 mM glycine, 150 mM NaCl, pH 2.7) and neutralized with 1 M Tris, pH 8. After phage titration of the eluate, we performed a second and then a third round of bio-panning using the GABAC-transfected neuroblastoma cells. After the third round of panning, DNA isolated from individual phage plaques was sequenced. […] The 7 illustrated sequences represent individual phage clones from a total of 36 sequenced clones.
# T1 sequence (P24046 22-479): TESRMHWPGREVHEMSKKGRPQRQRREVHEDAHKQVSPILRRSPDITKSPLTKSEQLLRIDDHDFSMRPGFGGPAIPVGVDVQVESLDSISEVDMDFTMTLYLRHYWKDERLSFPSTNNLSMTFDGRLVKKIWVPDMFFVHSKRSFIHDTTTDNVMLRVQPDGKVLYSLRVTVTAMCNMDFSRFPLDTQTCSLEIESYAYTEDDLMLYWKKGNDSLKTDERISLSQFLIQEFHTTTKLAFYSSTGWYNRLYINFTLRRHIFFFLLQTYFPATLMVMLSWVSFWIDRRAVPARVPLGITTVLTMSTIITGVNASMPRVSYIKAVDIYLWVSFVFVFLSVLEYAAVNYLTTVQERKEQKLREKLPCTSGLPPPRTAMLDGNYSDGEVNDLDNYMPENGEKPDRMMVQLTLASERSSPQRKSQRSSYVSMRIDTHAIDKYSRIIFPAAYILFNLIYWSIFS
row,Binder,binding result
1,"HPYDSLHFPRMS (not fully specified, also called Phage ID 6-1; not shown: protein III of bacteriophage M13 (Ph.D-12 library, New England Biolabs); any li) [Phage-displayed 12-mer peptide HPYDSLHFPRMS (Group B; Phage ID 4, 6-1)]",binds
2,"HPKQSLHFPDLS (not fully specified, not shown: protein III of bacteriophage M13 (Ph.D-12 library, New England Biolabs); any li) [Phage-displayed 12-mer peptide HPKQSLHFPDLS (Group B; Phage ID 6)]",binds
3,"HETAVRQTSPPM (not fully specified, no synthetic peptide was tested; also called Phage ID 20; Phage ID 22; not shown: protein III of bacteriophage M13 (Ph.D-12 library, New England Biolabs); any li) [Phage-displayed 12-mer peptide HETAVRQTSPPM (Group A; Phage ID 9, 20, 22)]",binds
4,"HETACRQTSPPM (not fully specified, not shown: protein III of bacteriophage M13 (Ph.D-12 library, New England Biolabs); any li) [Phage-displayed 12-mer peptide HETACRQTSPPM (Group A; Phage ID 11)]",binds
